The record followed here is patent publication US20260242478A1 (published 2026).

Sequences and labels used below:
B1: Phage-2108 (peptide)
peptide: SAMLCKPQWMCDGF
B2: Phage-2102 (peptide)
peptide: MERWCIPEWMCATT
B3: Phage-2106 (peptide)
peptide: QEKWCIPMWMCESL
B4: Phage-2110 (peptide)
peptide: FEKWCIPPWMCAVH
B5: Phage-2105 (peptide)
peptide: EWKWCTPSWMCEDA
B6: Phage-2109 (peptide)
peptide: LENWCKPAWMCRGS
B7: Phage-2107 (peptide)
peptide: VHNWCIPSWMCEGL
B8: Phage-2111 (peptide)
peptide: VVKWCSPPWMCDFL
B9: Phage-2104 (peptide)
peptide: GVNWCIPDWMCVGM
B10: Phage-2113 (peptide)
peptide: MNTWCKPAWMCEGL
B11: Phage-2112 (peptide)
peptide: VDPLCRPAWMCFGM
B12: Phage-2114 (peptide)
peptide: SERWCIPEWMCSMP
B13: Phage-2103 (peptide)
peptide: SENWCIPSWMCQGF
B14: Phage-2079 (peptide-180 library clone, SEQ ID NO: 2395) (peptide)
peptide: DWRLCIPEWMCERL
notes: Tested as clonal phage supernatant; not shown: pIII filament protein of the bacteriophage to which the peptide is fused for display
B15: Phage-2080 (peptide-180 library clone, SEQ ID NO: 2396) (peptide)
peptide: WDNWCTPLWMCQGF
notes: as for B14
B16: Phage-2084 (peptide-180 library clone, SEQ ID NO: 2400) (peptide)
peptide: SEHWCVPSWMCYGF
notes: as for B14
B17: Phage-2083 (peptide-180 library clone, SEQ ID NO: 2399) (peptide)
peptide: WSNWCTPRWVCKTI
notes: as for B14
B18: Phage-2086 (peptide-180 library clone, SEQ ID NO: 2402) (peptide)
peptide: VHQMCQPWWMCWET
notes: as for B14
B19: Phage-2078 (peptide-180 library clone, SEQ ID NO: 2394) (peptide)
peptide: IEKWCIPEWMCEYT
notes: as for B14
B20: Phage-2081 (peptide-180 library clone, SEQ ID NO: 2397) (peptide)
peptide: QVNWCIPPWMCAGL
modifications: cysteine pairing not given here; also: fused to phage pIII, pIII sequence and linker not given here
notes: as for B14
B21: Phage-2085 (peptide-180 library clone, SEQ ID NO: 2401) (peptide)
peptide: ESKWCTPPWMCMTD
notes: as for B14
B22: Phage-2082 (peptide-180 library clone, SEQ ID NO: 2398) (peptide)
peptide: PEKLCIPDWMCHWD
notes: as for B14
B23: Phage-2090 (peptide)
peptide: IVKWCVPEWMCEGT
modifications: cysteine pairing not given here; also: fused to phage pIII, pIII sequence and linker not given here
notes: Clonal phage of the Peptide-180 library
B24: Phage-2097 (peptide)
peptide: QGIMCIPEWMCSAI
notes: as for B23
B25: Phage-2087 (peptide)
peptide: FEKWCIPSWMCSGP
modifications: cysteine pairing not given here; also: fused to phage pIII, pIII sequence and linker not given here
notes: as for B23
B26: Phage-2093 (peptide)
peptide: VETWCTPRWMCEGF
notes: as for B23
B27: Phage-2100 (peptide)
peptide: INMWCIPAWMCQNT
notes: as for B23
B28: Phage-2099 (peptide)
peptide: LGNWCIPEWMCYGM
modifications: cysteine pairing not given here; also: fused to phage pIII (clonal phage display)
notes: as for B23
B29: Phage-2089 (peptide)
peptide: VEKWCIPTWMCQAM
modifications: cysteine pairing not given here; also: fused to phage pIII, pIII sequence and linker not given here
notes: as for B23
B30: Phage-2098 (peptide)
peptide: IPKLCKPSWMCLFY
notes: as for B23
B31: Phage-2095 (peptide)
peptide: WGKLCIPEWMCTTQ
notes: as for B23
B32: Phage-2092 (peptide)
peptide: FEKWCIPAWMCAAV
notes: as for B23
B33: Phage-2101 (peptide)
peptide: EAKWCIPAWMCSGV
notes: as for B23
B34: Phage-2088 (peptide)
peptide: VEKWCIPQWMCAEM
modifications: cysteine pairing not given here; also: fused to phage pIII, pIII sequence and linker not given here
notes: as for B23
B35: Phage-2091 (peptide)
peptide: ETRWCVPEWMCYGI
modifications: cysteine pairing not given here; also: fused to phage pIII, pIII sequence and linker not given here
notes: as for B23
B36: Phage-2096 (peptide)
peptide: PDHWCIPSWMCMSQ
notes: as for B23
B37: Phage-2094 (peptide)
peptide: VVHWCIPSWMCTEN
notes: as for B23

Where no end group is shown, it is not given here.

For one assay, the target named is T1, Anti-PSMA Fab (SEQ ID NOs: 19, 20).
T1 construct: Biotinylated and captured on neutravidin coated plates in the phage ELISA; also called 006 PSMA Fab
Put plainly: phage binding ELISA; biotinylated anti-PSMA Fab on neutravidin plate, PSMA antigen as competitor, anti-M13 HRP detection. In general terms: In an ELISA, binding on a coated surface is turned into a signal by an enzyme label.
Description: (§1) Clonal phage were harvested as crude supernatants and screened via standard ELISAs. […] Prior to the addition of clonal phage. wells were incubated with blocking buffer and PSMA antigen or blocking buffer alone. Without washing or aspirating, clonal phage supernatants were then added to the wells and incubated for a short time. Wells were then washed followed by detection of bound phage using a horse radish conjugated anti-M13 antibody.
With B1, the “Anti-PSMA Fab signal in the presence of PSMA” value (from here on “Anti-PSMA Fab signal”) is 0.0821.
As for B2, the “Anti-PSMA Fab signal” value was found to be 0.0637.
Consider B3, for which the “Anti-PSMA Fab signal” value was found to be 0.0796.
The same measure, in the same setting: in the case of B4 it was 0.138.
Same read-out and setting: to B5 belongs 0.0652.
Same read-out and setting: in the case of B6 it was 0.0678.
B7: the “Anti-PSMA Fab signal” value stood at 0.0717.
The same measure, in the same setting: in the case of B8 it was 0.0713.
Still for that read-out and setting: in the case of B9 it was 0.0692; in that of B10, 0.127; in that of B11, 0.0801.
The same measure, in the same setting: in the case of B12 it was 0.0625; in that of B13, 0.0813.

For another assay, the target named is T2, Anti-PSMA Fab (SEQ ID NOs: 19, 20).
T2 construct: In the phage ELISA the PSMA Fab was biotinylated and captured on neutravidin coated plates; also called 006 PSMA Fab
Put plainly: phage binding ELISA; biotinylated PSMA Fab on neutravidin plate, clonal phage supernatant, anti-M13 HRP detection.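 Further: wells were preincubated with blocking buffer either containing PSMA antigen or without it before crude phage supernatant was added, briefly incubated, then washed prior to detection.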
Description: as §1
For B14, the “Anti-PSMA Fab (SEQ ID NOs: 19, 20) signal” value came to 1.75.
The same measure, in the same setting: to B15 belongs 1.75; to B16, 1.75.
The same measure, in the same setting: in the case of B17 it was 1.75.
The same measure, in the same setting: to B18 belongs 1.75.
Turning to B19, the “Anti-PSMA Fab (SEQ ID NOs: 19, 20) signal” value worked out at 1.75.
On the same count and under the same terms, in the case of B20 it was 1.75; in that of B21, 1.75; in that of B22, 1.75.

The next assay addresses T1, Anti-PSMA Fab (SEQ ID NOs: 19, 20). Put plainly: phage binding ELISA; biotinylated anti-PSMA Fab on neutravidin plate, clonal phage supernatant, anti-M13 HRP detection.
Description: as §1
On to B1, for which the “Anti-PSMA Fab (SEQ ID NOs: 19, 20) signal” value was found to be 1.72.
Regarding B2, the “Anti-PSMA Fab (SEQ ID NOs: 19, 20) signal” value worked out at 1.73.
With B3, the “Anti-PSMA Fab (SEQ ID NOs: 19, 20) signal” value is 1.73.
Turning to B4, the “Anti-PSMA Fab (SEQ ID NOs: 19, 20) signal” value came out at 1.72.
Turning to B5, the “Anti-PSMA Fab (SEQ ID NOs: 19, 20) signal” value is 1.73.
With B6, the “Anti-PSMA Fab (SEQ ID NOs: 19, 20) signal” value is 1.72.
Same read-out and setting: in the case of B7 it was 1.73; in that of B8, 1.72; in that of B9, 1.73.
Regarding B10, the “Anti-PSMA Fab (SEQ ID NOs: 19, 20) signal” value amounted to 1.72.
On the same count and under the same terms, to B11 belongs 1.72.
Regarding B12, the “Anti-PSMA Fab (SEQ ID NOs: 19, 20) signal” value worked out at 1.72.
As to B13, the “Anti-PSMA Fab (SEQ ID NOs: 19, 20) signal” value was determined as 1.73.

A further assay addresses T2, Anti-PSMA Fab (SEQ ID NOs: 19, 20). In words: phage binding ELISA; PSMA Fab on plate pre-incubated with PSMA antigen as competitor, anti-M13 HRP detection.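 Further: crude clonal phage supernatants added without washing to wells preincubated with PSMA in blocking buffer, compared with wells receiving blocking buffer only, then bound phage detected.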
Description: as §1
In the case of B14, the “Anti-PSMA Fab signal” value is 0.0875.
The same measure, in the same setting: in the case of B15 it was 0.0794; in that of B16, 0.0957.
The same measure, in the same setting: to B17 belongs 0.0752; to B18, 0.0749.
Same read-out and setting: in the case of B19 it was 0.0826; in that of B20, 0.0898.
Take B21: the “Anti-PSMA Fab signal” value is 0.0945.
On to B22, for which the “Anti-PSMA Fab signal” value was 0.0951.

In a further assay the target is T3, Anti-PSMA Fab (SEQ ID NOs: 19, 20).
T3 construct: In the phage ELISA the Fab was biotinylated and captured on neutravidin coated plates; also called 006 PSMA Fab
Put plainly: phage binding ELISA; biotinylated PSMA Fab captured on neutravidin plate, bound phage detected with anti-M13-HRP.
Description: as §1
Regarding B23, the “Anti-PSMA Fab (SEQ ID NOs: 19, 20) signal” value amounted to 1.74.
Take B24: the “Anti-PSMA Fab (SEQ ID NOs: 19, 20) signal” value worked out at 1.73.
On the same count and under the same terms, to B25 belongs 1.75.
The same measure, in the same setting: in the case of B26 it was 1.74; in that of B27, 1.73; in that of B28, 1.73.
The same measure, in the same setting: in the case of B29 it was 1.74.
Take B30: the “Anti-PSMA Fab (SEQ ID NOs: 19, 20) signal” value stood at 1.73.
Still for that read-out and setting: to B31 belongs 1.74; to B32, 1.74.
Same read-out and setting: in the case of B33 it was 1.73.
Still for that read-out and setting: to B34 belongs 1.74.
As to B35, the “Anti-PSMA Fab (SEQ ID NOs: 19, 20) signal” value stood at 1.74.
On to B36, for which the “Anti-PSMA Fab (SEQ ID NOs: 19, 20) signal” value is 1.74.
Still for that read-out and setting: to B37 belongs 1.74.

A further assay has the same target. Put plainly: phage binding ELISA on captured PSMA Fab, wells pre-incubated with PSMA antigen as competitor.
Description: as §1
As to B23, the “Anti-PSMA Fab signal” value was found to be 0.0687.
B24: the “Anti-PSMA Fab signal” value was 0.0664.
Same read-out and setting: to B25 belongs 0.097; to B26, 0.0881.
Same read-out and setting: in the case of B27 it was 0.128; in that of B28, 0.078; in that of B29, 0.0844.
The same measure, in the same setting: in the case of B30 it was 0.185.
For B31, the “Anti-PSMA Fab signal” value is 0.0687.
The same measure, in the same setting: in the case of B32 it was 0.112.
Still for that read-out and setting: to B33 belongs 0.0654; to B34, 0.0696.
B35: the “Anti-PSMA Fab signal” value is 0.0943.
On the same count and under the same terms, to B36 belongs 0.0974; to B37, 0.0941.
